# Laboratory results as given in patent US20190256864A1 (INDIANA UNIVERSITY RESEARCH AND TECHNOLOGY, published 2019).
# Residue numbers refer to the chain shown, from its start. Names and notes keep the numbering of the source.
# B1: AvrPphB(C98S):myc (protein)
# chain: MKIGTQATSLAVLHNQESHAPQAPIAVRPEPAHAIPEIPLDLAIRPRTRGIHPFLAMTLGDKGCASSSGVSLEDDSHTQVSLSDFSVASRDVNHNNISAGLSTEWLVMSSDGDAESRMDHLDYNGEGQSRGSERHQVYNDALRAALSNDDEAPFFTASTAVIEDAGFSLRREPKTVHASGGSAQLGQTVAHDVAQSGRKHLLSLRFANVQGHAIACSCEGSQFKLFDPNLGEFQSSRSAAPQLIKGLIDHYNSLNYDVACVNEFRVS
# B2: HvPBS1-1:HA (enzyme, not shown: small tags and cut ends)
# chain: MGCFPCFDSSSDGELLYPKQGGGGGGGGGNGTGGRTAAAASSSGVGAREERPMVPPRVEKLPAGAEKARAKGNAGMKELSDLRDANGNVLSAQTFTFRQLTAATRNFREECFIGEGGFGRVYKGRLDGGQVVAIKQLNRDGNQGNKEFLVEVLMLSLLHHQNLVNLVGYCADGEQRLLVYEYMPLGSLEDHLHDLPPDKEPLDWNTRMKIAAGAAKGLEYLHDKAQPPVIYRDFKSSNILLGDDFHPKLSDFGLAKLGPVGDKSHVSTRVMGTYGYCAPEYAMTGQLTVKSDVYSFGVVLLELITGRKAIDSTRPHGEQNLVSWARPLFNDRRKLPKMADPGLQGRYPMRGLYQALAVASMCIQSEAASRPLIADVVTALSYLASQIYDPNAIHASKKAGGDQRSRVSDSGRALLKNDEAGSSGHKSDRDDSPREPPPGILNDRERMVAEAKMWGANLREKTRAAANAQGSLDSPTETG
# notes: also called HORVU2Hr1G070690.2; MLOC_13277
# B3: HvPBS1-2:HA (enzyme, not shown: small tags and cut ends)
# chain: MGFLSCLFRCPEEEEVVVKEHDDNEDSSGIDHGVASESSESVPLRAESTHIEGIQRNGTNNEATIFTLRELVDATKNFSQDSQLGRGGFGCVYKAYLNDGQVVAVKQLDLNGLQGNREFLVEVLMLNLLHHPNLVNLIGYCVDGDQRLLVYEYMPLGSLEDHLHDLPPNKEPLDWTTRMKIAAGAAAGLEYLHDKANPPVIYRDIKPSNILLAEGYHAKLSDFGLAKLGPVGDKTHVTTRVMGTYGYCAPEYAATGQLTNKSDIYSFGVVFLELITGRRALDSNRPREEQDLVSWARPLFKDQRKFPKMADPLLRGRFPKRGLYQALAIAAMCLQEKSRNRPLIREVAAALSYLSSQTYNGNDAAGRRCLDGPSTPKVSEEQVNQDDALPSQLGAQTSMHDRMNDFIPEGKEHCRSGSNRGVRGRVVPNGVDRDRALADANVWAEAWRRHEKASKVRVTDEILG
# notes: also called HORVU3Hr1G035810.1; MLOC_12866
# Experiments:
# [1] = tested on: T1, Soybean mosaic virus (SMV) PBS1 decoy protein
# T1 sequence: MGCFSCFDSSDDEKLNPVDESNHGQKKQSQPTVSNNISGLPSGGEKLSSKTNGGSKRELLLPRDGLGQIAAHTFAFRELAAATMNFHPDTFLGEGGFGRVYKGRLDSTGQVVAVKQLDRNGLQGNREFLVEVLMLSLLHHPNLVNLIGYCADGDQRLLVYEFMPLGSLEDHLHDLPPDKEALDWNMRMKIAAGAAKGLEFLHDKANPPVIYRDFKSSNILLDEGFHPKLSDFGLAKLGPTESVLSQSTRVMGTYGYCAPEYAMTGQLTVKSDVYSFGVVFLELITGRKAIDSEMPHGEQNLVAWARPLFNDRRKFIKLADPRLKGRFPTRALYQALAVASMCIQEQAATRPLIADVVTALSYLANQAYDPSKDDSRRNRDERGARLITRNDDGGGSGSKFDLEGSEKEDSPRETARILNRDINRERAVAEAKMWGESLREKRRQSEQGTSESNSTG
# [2] = tested on: T2, Wheat streak mosaic virus (WSMV) PBS1 decoy protein
# T2 sequence: T1 sequence with E241Q, S242Y, V243C, L244V, S245Y, Q246E
# [3] = tested on: T3, GmPBS1SCS derivative of GmPBS1a
# T3 sequence: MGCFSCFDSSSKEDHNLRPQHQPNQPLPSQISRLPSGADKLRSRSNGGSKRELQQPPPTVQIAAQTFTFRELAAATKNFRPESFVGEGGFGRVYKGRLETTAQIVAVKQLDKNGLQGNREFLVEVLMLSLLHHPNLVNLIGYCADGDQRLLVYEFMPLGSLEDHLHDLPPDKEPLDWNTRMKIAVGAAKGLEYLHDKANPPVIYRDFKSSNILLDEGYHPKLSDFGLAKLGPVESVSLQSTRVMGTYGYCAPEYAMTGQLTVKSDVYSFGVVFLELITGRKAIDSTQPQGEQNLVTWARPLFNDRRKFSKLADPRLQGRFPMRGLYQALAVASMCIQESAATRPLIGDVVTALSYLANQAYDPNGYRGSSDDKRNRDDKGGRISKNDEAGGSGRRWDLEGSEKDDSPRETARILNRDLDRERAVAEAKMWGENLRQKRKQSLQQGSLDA
# [4] = tested on: T4, GmPBS1SCS derivative of GmPBS1b
# T4 sequence: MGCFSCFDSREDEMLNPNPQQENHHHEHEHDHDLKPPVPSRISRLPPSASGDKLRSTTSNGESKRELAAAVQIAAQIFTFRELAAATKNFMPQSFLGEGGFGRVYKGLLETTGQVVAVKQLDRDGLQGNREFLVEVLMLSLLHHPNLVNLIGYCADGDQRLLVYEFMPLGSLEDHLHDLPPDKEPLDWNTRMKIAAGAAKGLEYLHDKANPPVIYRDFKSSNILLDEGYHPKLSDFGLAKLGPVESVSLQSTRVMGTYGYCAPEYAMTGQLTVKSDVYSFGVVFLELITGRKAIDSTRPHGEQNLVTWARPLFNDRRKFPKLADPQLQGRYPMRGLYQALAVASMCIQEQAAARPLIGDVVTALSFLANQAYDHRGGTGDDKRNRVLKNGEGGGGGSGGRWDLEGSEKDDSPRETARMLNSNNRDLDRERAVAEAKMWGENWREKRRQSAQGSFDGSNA
# [5] = tested on: T5, GmPBS1SCS derivative of GmPBS1c
# T5 sequence: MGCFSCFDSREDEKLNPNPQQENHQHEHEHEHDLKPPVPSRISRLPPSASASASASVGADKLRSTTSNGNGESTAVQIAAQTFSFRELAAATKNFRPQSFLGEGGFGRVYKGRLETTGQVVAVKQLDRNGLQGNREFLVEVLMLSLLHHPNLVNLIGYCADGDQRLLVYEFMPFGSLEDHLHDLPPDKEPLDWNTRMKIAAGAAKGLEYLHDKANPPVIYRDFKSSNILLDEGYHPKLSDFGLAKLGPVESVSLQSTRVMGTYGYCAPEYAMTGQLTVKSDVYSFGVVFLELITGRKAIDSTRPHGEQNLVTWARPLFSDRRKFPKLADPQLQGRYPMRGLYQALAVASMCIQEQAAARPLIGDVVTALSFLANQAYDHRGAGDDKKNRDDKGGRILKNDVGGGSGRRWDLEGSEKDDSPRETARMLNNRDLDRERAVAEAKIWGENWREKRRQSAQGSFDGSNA
# [6] = biological target: T6, HvPBS1-1:HA
# T6 chain: B2 chain
# [7] = biological target: T7, HvPBS1-2:HA
# T7 chain: B3 chain
# [8] = biological target: NbPBS1:HA
# [9] = biological target: T8, sYFP:LTI6b (Arabidopsis thaliana, UniProt Q9ZNS6 1-54); experiment: co-immunoprecipitation (GFP-Trap beads, anti-HA blot) after transient co-expression in N. benthamiana
# T8 construct: Negative control in the co-immunoprecipitation; also called sYFP:LTI6b fusion protein; plasma membrane-localized negative control; not shown: N-terminal super yellow fluorescent protein (sYFP)
# T8 sequence (looked up): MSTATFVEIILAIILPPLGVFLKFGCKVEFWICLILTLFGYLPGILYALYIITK
# Protocol: To determine whether PBR1.c is activated by sensing cleavage of PBS1 proteins, co-immunoprecipitation (co-IP) analyses of PBR1.c with HvPBS1-1:HA, HvPBS1-2:HA, AtPBS1:HA, or NbPBS1:HA was performed. As a positive control, AtPBS1:HA was co-expressed with RPS5:sYFP, which forms a pre- activation complex in the absence of AvrPphB. As a negative control, the plasma membrane-localized fusion protein sYFP:LTI6b with each of the PBS1 proteins (Cutler et al., 2000). […] NbPBS1:HA also immunoprecipitated with PBR1.c:sYFP (and not with sYFP:LTI6b) supporting the notion that AvrPphB-mediated cleavage of NbPBS1 activates PBR1.c-dependent HR in N. benthamiana. Though all of the PBS1 proteins immunoprecipitated with PBR1.c:sYFP, PBR1.c:sYFP preferentially interacted with HvPBS1-2:HA and AtPBS1:HA (FIG. 7).
# For transient expression assays in N. benthamiana, we followed the protocol described by DeYoung et al. (2012) and Kim et al. (2016). Briefly, the dexamethasone-inducible constructs were transformed into Agrobacterium tumefaciens GV3101 (pMP90) strains and were streaked onto Luria-Bertani (LB) plates containing 30 μg of gentamicin sulfate per milliliter and 50 μg of kanamycin per milliliter. […]
molecule,measurement,setting,value
Wheat streak mosaic virus (WSMV) NIa protease,cleavage of the substrate (immunoblot after transient co-expression in N. benthamiana); not cleaved by the non-matching protease,[1],demonstrating cleavage of the decoy PBS1 proteins only by the matching proteases
same,cleavage of the substrate (immunoblot after transient co-expression in N. benthamiana),[2],demonstrating cleavage of the decoy PBS1 proteins only by the matching proteases
Soybean mosaic virus (SMV) NIa protease,cleavage of the substrate (transient coexpression in N. benthamiana),[3],Transient coexpression of the modified GmPBS1 constructs along with the SMV NIa protease in N. benthamiana resulted in NIa-mediated cleavage of GmPBS1SCS
same,cleavage of the substrate (transient coexpression in N. benthamiana),[4],Transient coexpression of the modified GmPBS1 constructs along with the SMV NIa protease in N. benthamiana resulted in NIa-mediated cleavage of GmPBS1SCS
same,cleavage of the substrate (transient coexpression in N. benthamiana),[5],Transient coexpression of the modified GmPBS1 constructs along with the SMV NIa protease in N. benthamiana resulted in NIa-mediated cleavage of GmPBS1SCS
same,cleavage of the substrate (immunoblot after transient co-expression in N. benthamiana),[1],demonstrating cleavage of the decoy PBS1 proteins only by the matching proteases
same,cleavage of the substrate (immunoblot after transient co-expression in N. benthamiana); not cleaved by the non-matching protease,[2],demonstrating cleavage of the decoy PBS1 proteins only by the matching proteases
B1,cleavage of the substrate (Western blot after transient co-expression in N. benthamiana),[6],This did not produce any cleavage products
same,cleavage of the substrate (Western blot after transient co-expression in N. benthamiana),[7],This did not produce any cleavage products
same,cleavage of the substrate (immunoblot after transient co-expression in N. benthamiana),[8],"Co-expression with AvrPphB:myc, but not the protease inactive mutant, resulted in cleavage of NbPBS1:HA"
B2,binding result,[9],no binding
B3,binding result,[9],no binding
